Assay results as given in patent publication US20200199241A1 (Chugai, published 2020).

T1: FcγRIIb (human, UniProt P31994 43-217, limits assumed)
T1 construct: also called FcgRIIb; FcγIIB
T1 sequence: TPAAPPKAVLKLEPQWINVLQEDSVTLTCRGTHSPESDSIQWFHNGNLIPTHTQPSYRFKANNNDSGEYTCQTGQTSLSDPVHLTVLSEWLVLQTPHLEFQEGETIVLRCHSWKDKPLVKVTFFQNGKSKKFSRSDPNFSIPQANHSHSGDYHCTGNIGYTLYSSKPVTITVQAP

T2: FcγRIIa type H (human, UniProt P12318 36-217)
T2 construct: also called FcγRIIaH; FcγRIIH
T2 sequence: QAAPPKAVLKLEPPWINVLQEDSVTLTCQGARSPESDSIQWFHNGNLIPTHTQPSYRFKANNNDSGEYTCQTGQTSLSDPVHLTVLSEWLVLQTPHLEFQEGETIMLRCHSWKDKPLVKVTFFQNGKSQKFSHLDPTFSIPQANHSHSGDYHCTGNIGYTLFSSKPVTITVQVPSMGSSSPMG

T3: FcγRIIb (human, UniProt P31994 43-217, limits assumed)
T3 construct: also called FcγIIB; CD32
T3 sequence: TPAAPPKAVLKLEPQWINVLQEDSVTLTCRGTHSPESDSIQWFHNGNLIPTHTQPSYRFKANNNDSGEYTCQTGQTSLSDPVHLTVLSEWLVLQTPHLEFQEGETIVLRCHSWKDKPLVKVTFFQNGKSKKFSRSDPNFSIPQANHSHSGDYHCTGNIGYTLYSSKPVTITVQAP

T4: FcγRIIa type R (human, UniProt P12318 36-217)
T4 construct: also called FcγRIIaR; FcγRIIa(R)
T4 chain: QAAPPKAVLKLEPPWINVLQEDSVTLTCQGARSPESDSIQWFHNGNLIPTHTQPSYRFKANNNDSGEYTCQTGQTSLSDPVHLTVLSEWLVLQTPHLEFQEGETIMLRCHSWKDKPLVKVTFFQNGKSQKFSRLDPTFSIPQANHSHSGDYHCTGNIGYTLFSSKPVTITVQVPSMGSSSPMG

T5: FcγRIIa type H (human, UniProt P12318 36-217)
T5 construct: also called FcγRIIaH; FcγRIIa(H)
T5 sequence: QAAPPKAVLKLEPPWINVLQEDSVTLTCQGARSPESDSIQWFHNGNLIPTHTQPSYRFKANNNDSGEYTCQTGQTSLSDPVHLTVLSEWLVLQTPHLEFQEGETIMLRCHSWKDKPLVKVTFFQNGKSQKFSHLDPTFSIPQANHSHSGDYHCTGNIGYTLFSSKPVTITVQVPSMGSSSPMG


How the values were obtained:
[1] = biological target: T6, FcγRIIIa type V (human, UniProt P08637 17-208, limits assumed); assay: SPR (Biacore), FcγR over captured antibody
T6 construct: also called FcγRIIIaV; FcgRIIIaV
T6 sequence (P08637 other isoform, or with tags, fused parts or gaps limits assumed): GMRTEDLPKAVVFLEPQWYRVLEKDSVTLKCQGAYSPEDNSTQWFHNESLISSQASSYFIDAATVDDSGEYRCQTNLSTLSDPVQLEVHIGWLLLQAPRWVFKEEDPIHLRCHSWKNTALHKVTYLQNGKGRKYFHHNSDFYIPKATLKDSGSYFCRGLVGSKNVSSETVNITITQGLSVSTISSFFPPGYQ

[2] = biological target: T1, FcγRIIb; assay: SPR (Biacore), FcγR over captured antibody
[3] = biological target: T2, FcγRIIa type H; assay: SPR (Biacore), FcγR over captured antibody
[4] = biological target: T7, FcγRIa (human, UniProt P12314 16-292, limits assumed); assay: SPR (Biacore), FcγR over captured antibody
T7 construct: also called FcgRIa; CD64
T7 sequence (P12314 16-292 limits assumed): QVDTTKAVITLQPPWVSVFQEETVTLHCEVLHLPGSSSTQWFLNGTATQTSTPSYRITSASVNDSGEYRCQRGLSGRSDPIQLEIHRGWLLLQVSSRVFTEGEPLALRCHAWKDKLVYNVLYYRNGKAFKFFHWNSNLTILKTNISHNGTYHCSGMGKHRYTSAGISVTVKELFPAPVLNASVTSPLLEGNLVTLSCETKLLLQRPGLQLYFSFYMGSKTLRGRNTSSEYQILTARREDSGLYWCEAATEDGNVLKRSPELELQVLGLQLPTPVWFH

[5] = biological target: T1, FcγRIIb; assay: SPR (Biacore), KD of IL6R-B3/IL6R-L divided by KD of the variant
Excerpt: (§1) Furthermore, KD(IIaR)/KD(IIb) and KD(IIaH)/KD(IIb) in the table respectively represent the value obtained by dividing the KD value of each variant for FcγRIIaR by the KD value of each variant for FcγRIIb, and the value obtained by dividing the KD value of each variant for FcγRIIaH by the KD value of each variant for FcγRIIb. KD(IIb) of the parent polypeptide/KD(IIb) of the altered polypeptide refers to the value obtained by dividing the KD value of the parent polypeptide for FcγRIIb by the KD value of each variant for FcγRIIb.

[6] = biological target: T3, FcγRIIb; assay: SPR (Biacore); KD for FcγRIIaR divided by KD for FcγRIIb of the same antibody; column head in Table 52-1
Excerpt: as §1

[7] = biological target: T3, FcγRIIb; assay: ratio of SPR KD values, parent IL6R-B3/IL6R-L
[8] = biological target: T4, FcγRIIa type R; assay: SPR (Biacore), method of Example 14
Excerpt: as §1

[9] = biological target: T8, FcγRIIIa type V (human, UniProt P08637 17-208, limits assumed); assay: SPR (Biacore), method of Example 14
T8 construct: also called FcγRIIIaV; FcγRIIIa(V)
T8 sequence (P08637 17-208 F176V limits assumed): as the sequence (P08637 other isoform, or with tags, fused parts or gaps limits assumed) above, with S179A counted along it
Excerpt: as §1

[10] = biological target: T5, FcγRIIa type H; assay: SPR (Biacore), method of Example 14
Excerpt: as §1

[11] = biological target: T9, FcγRIa (human, UniProt P12314 16-292, limits assumed); assay: SPR (Biacore), method of Example 14
T9 construct: also called CD64
T9 sequence (P12314 16-292 limits assumed): as the sequence (P12314 16-292 limits assumed) above
Excerpt: as §1

[12] = biological target: T3, FcγRIIb; assay: SPR (Biacore), method of Example 14
Excerpt: as §1

[13] = biological target: T3, FcγRIIb; assay: SPR (Biacore); KD for FcγRIIaH divided by KD for FcγRIIb of the same antibody; column head in Table 52-1
Excerpt: as §1

Binder | Kd [1] [µM] | Kd [2] [µM] | Kd [3] [µM] | Kd [4] [µM] | KD(IIb) of the parent polypeptide/KD(IIb) of altered polypeptide [5] [fold] | KD(IIaR)/KD(IIb) [6] | KD(IIb) of the parent polypeptide/KD(IIb) of altered polypeptide [7] [fold] | Kd [8] [µM] | Kd [9] [µM] | Kd [10] [µM] | Kd [11] [µM] | Kd [12] [µM] | KD(IIaH)/KD(IIb) [13]
IL6R-2B128/IL6R-L (antibody, human IgG1, IgG1; Fc variant of IL6R-B3; copies: 2 + 2) heavy: QVQLQESGPGLVKPSETLSLTCAVSGHSISHDHAWSWVRQPPGEGLEWIGFISYSGITNYNPSLQGRVTISRDNSKNTLYLQMNSLRAEDTAVYYCARSLARTTAMDYWGEGTLVTVSSASTKGPSVFPLAPSSKSTSGGTAALGCLVKDYFPEPVTVSWNSGALTSGVHTFPAVLQSSGLYSLSSVVTVPSSSLGTQTYICNVNHKPSNTKVDKKVEPKSCDKTHTCPPCPAPELLGGDSVFLFPPKPKDTLMISRTPEVTCVVVDVSHEDPEVKFNWYVDGVEVHNAKTKPREEQDNSTYRVVSVLTVLHQDWLNGKEYKCKVSNKALPAPIEKTISKAKGQPREPQVYTLPPSRDELTKNQVSLTCLVKGFYPSDIAVEWESNGQPENNYKTTPPVLDSDGSFFLYSKLTVDKSRWQQGNVFSCSVMHEALHNHYTQESLSLSP light: DIQMTQSPSSLSASVGDRVTITCRASQDISSYLNWYQQKPGKAPKLLIYYTSRLHSGVPSRFSGSGSGTDFTFTISSLQPEDIATYYCQQGNTLPYTFGQGTKVEIK | 72 | 1.4 | 34 | 0.013 | 2.1 | – | – | – | – | – | – | – | –
IL6R-BP208/IL6R-L (antibody, human IgG1, Anti-IL-6R human IgG1 variant; copies: 2 + 2) heavy: QVQLQESGPGLVKPSETLSLTCAVSGHSISHDHAWSWVRQPPGEGLEWIGFISYSGITNYNPSLQGRVTISRDNSKNTLYLQMNSLRAEDTAVYYCARSLARTTAMDYWGEGTLVTVSSASTKGPSVFPLAPSSKSTSGGTAALGCLVKDYFPEPVTVSWNSGALTSGVHTFPAVLQSSGLYSLSSVVTVPSSSLGTQTYICNVNHKPSNTKVDKKVEPKSCDKTHTCPPCPAPDLLGDDSVFLFPPKPKDTLMISRTPEVTCVVVDVSDEDGEVKFNWYVDGVEVHNAKTKPREEQYNSTYRVVSVLTVLHQDWLNGKEYKCKVSNKALPRPIEKTISKAKGQPREPQVYTLPPSRDELTKNQVSLTCLVKGFYPSDIAVEWESNGQPENNYKTTPPVLDSDGSFFLYSKLTVDKSRWQQGNVFSCSVMHEALHNHYTQESLSLSP light: DIQMTQSPSSLSASVGDRVTITCRASQDISSYLNWYQQKPGKAPKLLIYYTSRLHSGVPSRFSGSGSGTDFTFTISSLQPEDIATYYCQQGNTLPYTFGQGTKVEIK | – | – | – | – | – | 26.3 | 95.4 | 0.85 | 53 | 83 | 0.019 | 0.032 | 256
IL6R-BP213/IL6R-L (antibody, human IgG1, Anti-IL-6R human IgG1 variant; copies: 2 + 2) heavy: QVQLQESGPGLVKPSETLSLTCAVSGHSISHDHAWSWVRQPPGEGLEWIGFISYSGITNYNPSLQGRVTISRDNSKNTLYLQMNSLRAEDTAVYYCARSLARTTAMDYWGEGTLVTVSSASTKGPSVFPLAPSSKSTSGGTAALGCLVKDYFPEPVTVSWNSGALTSGVHTFPAVLQSSGLYSLSSVVTVPSSSLGTQTYICNVNHKPSNTKVDKKVEPKSCDKTHTCPPCPAPDLLGGDSVFLFPPKPKDTLMISRTPEVTCVVVDVSDEDGEVKFNWYVDGVEVHNAKTKPREEQYNSTYRVVSVLTVLHQDWLNGKEYKCKVSNKALPRPIEKTISKAKGQPREPQVYTLPPSRDELTKNQVSLTCLVKGFYPSDIAVEWESNGQPENNYKTTPPVLDSDGSFFLYSKLTVDKSRWQQGNVFSCSVMHEALHNHYTQESLSLSP light: DIQMTQSPSSLSASVGDRVTITCRASQDISSYLNWYQQKPGKAPKLLIYYTSRLHSGVPSRFSGSGSGTDFTFTISSLQPEDIATYYCQQGNTLPYTFGQGTKVEIK | – | – | – | – | – | 17.7 | 17.6 | 3.1 | 63 | 24 | 0.0041 | 0.18 | 136
IL6R-BP209/IL6R-L (antibody, human IgG1, Anti-IL-6R human IgG1 variant; copies: 2 + 2) heavy: QVQLQESGPGLVKPSETLSLTCAVSGHSISHDHAWSWVRQPPGEGLEWIGFISYSGITNYNPSLQGRVTISRDNSKNTLYLQMNSLRAEDTAVYYCARSLARTTAMDYWGEGTLVTVSSASTKGPSVFPLAPSSKSTSGGTAALGCLVKDYFPEPVTVSWNSGALTSGVHTFPAVLQSSGLYSLSSVVTVPSSSLGTQTYICNVNHKPSNTKVDKKVEPKSCDKTHTCPPCPAPELLGDDSVFLFPPKPKDTLMISRTPEVTCVVVDVSDEDGEVKFNWYVDGVEVHNAKTKPREEQYNSTYRVVSVLTVLHQDWLNGKEYKCKVSNAALPRPIEKTISKAKGQPREPQVYTLPPSRDELTKNQVSLTCLVKGFYPSDIAVEWESNGQPENNYKTTPPVLDSDGSFFLYSKLTVDKSRWQQGNVFSCSVMHEALHNHYTQESLSLSP light: DIQMTQSPSSLSASVGDRVTITCRASQDISSYLNWYQQKPGKAPKLLIYYTSRLHSGVPSRFSGSGSGTDFTFTISSLQPEDIATYYCQQGNTLPYTFGQGTKVEIK | – | – | – | – | – | 22.7 | 60.4 | 1.2 | 41 | 10 | 0.039 | 0.051 | 195
IL6R-BP211/IL6R-L (antibody, human IgG1, Anti-IL-6R human IgG1 variant; copies: 2 + 2) heavy: QVQLQESGPGLVKPSETLSLTCAVSGHSISHDHAWSWVRQPPGEGLEWIGFISYSGITNYNPSLQGRVTISRDNSKNTLYLQMNSLRAEDTAVYYCARSLARTTAMDYWGEGTLVTVSSASTKGPSVFPLAPSSKSTSGGTAALGCLVKDYFPEPVTVSWNSGALTSGVHTFPAVLQSSGLYSLSSVVTVPSSSLGTQTYICNVNHKPSNTKVDKKVEPKSCDKTHTCPPCPAPDLLGGDSVFLFPPKPKDTLMISRTPEVTCVVVDVSDEDGEVKFNWYVDGVEVHNAKTKPREEQYNSTYRVVSVLTVLHQDWLNGKEYKCKVSNAALPRPIEKTISKAKGQPREPQVYTLPPSRDELTKNQVSLTCLVKGFYPSDIAVEWESNGQPENNYKTTPPVLDSDGSFFLYSKLTVDKSRWQQGNVFSCSVMHEALHNHYTQESLSLSP light: DIQMTQSPSSLSASVGDRVTITCRASQDISSYLNWYQQKPGKAPKLLIYYTSRLHSGVPSRFSGSGSGTDFTFTISSLQPEDIATYYCQQGNTLPYTFGQGTKVEIK | – | – | – | – | – | 18.5 | 13.8 | 4.1 | 73 | 27 | 0.0042 | 0.22 | 120
IL6R-BP206/IL6R-L (antibody, human IgG1, Anti-IL-6R human IgG1 variant; copies: 2 + 2) heavy: QVQLQESGPGLVKPSETLSLTCAVSGHSISHDHAWSWVRQPPGEGLEWIGFISYSGITNYNPSLQGRVTISRDNSKNTLYLQMNSLRAEDTAVYYCARSLARTTAMDYWGEGTLVTVSSASTKGPSVFPLAPSSKSTSGGTAALGCLVKDYFPEPVTVSWNSGALTSGVHTFPAVLQSSGLYSLSSVVTVPSSSLGTQTYICNVNHKPSNTKVDKKVEPKSCDKTHTCPPCPAPDLLGGDSVFLFPPKPKDTLMISRTPEVTCVVVDVSHEDGEVKFNWYVDGVEVHNAKTKPREEQYNSTYRVVSVLTVLHQDWLNGKEYKCKVSNKALPRPIEKTISKAKGQPREPQVYTLPPSRDELTKNQVSLTCLVKGFYPSDIAVEWESNGQPENNYKTTPPVLDSDGSFFLYSKLTVDKSRWQQGNVFSCSVMHEALHNHYTQESLSLSP light: DIQMTQSPSSLSASVGDRVTITCRASQDISSYLNWYQQKPGKAPKLLIYYTSRLHSGVPSRFSGSGSGTDFTFTISSLQPEDIATYYCQQGNTLPYTFGQGTKVEIK | – | – | – | – | – | 16.1 | 15.8 | 3.1 | 69 | 24 | 0.0082 | 0.2 | 123
